Data published in patent publication EP1950297A2.

Molecular target: GST-fusion protein containing amino acids 327-517 of KIAA0175 (human) (UniProt Q14680)
Assay: cell-based or functional assay

UniProt Q14680, sequence (Q14680 327-517 S391Q): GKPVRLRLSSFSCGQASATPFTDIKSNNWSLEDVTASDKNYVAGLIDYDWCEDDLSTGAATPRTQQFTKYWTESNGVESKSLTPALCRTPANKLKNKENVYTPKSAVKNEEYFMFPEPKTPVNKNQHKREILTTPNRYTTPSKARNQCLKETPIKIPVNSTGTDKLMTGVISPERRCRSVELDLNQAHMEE

increase in phosphorylation by ATM immunoprecipitated from gamma-irradiated cells: 2 to 3 fold
Substance: Ataxia telangiectasia mutated (ATM), immunoprecipitated from cells (from UniProt Q13315 2-3056) (enzyme)
